Peptide exchange data for 71 substances are collected here from patent publication US10745460B2, “Peptides and combination of peptides for use in immunotherapy against various tumors” (Immatics Biotechnologies GmbH, priority 2015, dated 2020).

The assay concerns the target HLA-A*02:01 (Homo sapiens, UniProt P04439, D140Y/D185E/D98H/E176V/E277Q/G131W/G231S/I119V/I121R/I166T/I218V/L300P/L318F/N151K/N90K/P208A/P217A/Q86G/Q94H/R138H/R169H/T345S). In words: MHC binding assay: UV-ligand exchange with β2m ELISA (peptide exchange yield). As to conditions: binding to HLA-A*02:01 evaluated by peptide exchange yield (UV-ligand exchange, β2m ELISA). Summed up: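 UV-cleavable peptide in HLA monomers exchanged for test peptide by UV irradiation; exchange yield measured by streptavidin-capture ELISA with HRP anti-β2m (TMB, 450 nm) on 100-fold diluted complexes. Quantified against refolded HLA-A*02:01/MLA-001 standards (15-500 ng/ml).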
For “195 (VIIQNLPAL; listed as Homo sapiens) [compound 195]”, the Peptide exchange entry was “+++ (≥50 = +++)”. For the substance “198 (ILTNKVVSV; listed as Homo sapiens) [compound 198]”, the Peptide exchange result is given as “++ (≥20% = ++)”. For the substance “199 (SVADLAHVL; listed as Homo sapiens) [compound 199]”, the Peptide exchange entry was “++ (≥20% = ++)”. On to “200 (IMPTFDLTKV; listed as Homo sapiens) [compound 200]”, for which the Peptide exchange entry is “+++ (≥50 = +++)”.

On to “203 (FLFVDPELV; listed as Homo sapiens) [compound 203]”, for which the Peptide exchange entry is “++ (≥20% = ++)”. With “204 (SEWGSPHAAVP; listed as Homo sapiens) [compound 204]”, the Peptide exchange entry is recorded as “+++ (≥50 = +++)”. For “206 (GLDAFRIFL; listed as Homo sapiens) [compound 206]”, the Peptide exchange entry is on record as “++++ (≥75% = ++++)”.

As for “207 (KLFETVEEL; listed as Homo sapiens) [compound 207]”, the Peptide exchange entry is recorded as “+++ (≥50 = +++)”. Regarding “208 (HLNNDRNPL; listed as Homo sapiens) [compound 208]”, the Peptide exchange result is “++ (≥20% = ++)”. For “210 (GLAGDNIYL; listed as Homo sapiens) [compound 210]”, the Peptide exchange entry was “+++ (≥50 = +++)”.

For the substance “211 (LLTTVLINA; listed as Homo sapiens) [compound 211]”, the Peptide exchange entry is reported as “+++ (≥50 = +++)”. As to “212 (MTLSEIHAV; listed as Homo sapiens) [compound 212]”, the Peptide exchange entry is “++ (≥20% = ++)”. For “213 (ILAVDGVLSV; listed as Homo sapiens) [compound 213]”, the Peptide exchange entry is “+++ (≥50 = +++)”.

Consider “214 (ALFETLIQL; listed as Homo sapiens) [compound 214]”, for which the Peptide exchange entry is listed as “+++ (≥50 = +++)”. For “215 (QIADIVTSV; listed as Homo sapiens) [compound 215]”, the Peptide exchange entry is given as “++ (≥20% = ++)”. Take “216 (ALSTVTPRI; listed as Homo sapiens) [compound 216]”: the Peptide exchange entry is “++ (≥20% = ++)”.

Consider “217 (LLWPSSVPA; listed as Homo sapiens) [compound 217]”, for which the Peptide exchange entry is on record as “+++ (≥50 = +++)”.

As for “218 (SLTGANITV; listed as Homo sapiens) [compound 218]”, the Peptide exchange entry is reported as “+++ (≥50 = +++)”. In the case of “219 (GVVPTIQKV; listed as Homo sapiens) [compound 219]”, the Peptide exchange result is reported as “++ (≥20% = ++)”. As for “220 (ALSELERVL; listed as Homo sapiens) [compound 220]”, the Peptide exchange result is on record as “+++ (≥50 = +++)”. As for “221 (IMLNSVEEI; listed as Homo sapiens) [compound 221]”, the Peptide exchange result is “++ (≥20% = ++)”.

With “222 (LLTGVFAQL; listed as Homo sapiens) [compound 222]”, the Peptide exchange entry is listed as “++ (≥20% = ++)”.

Take “223 (ALHPVQFYL; listed as Homo sapiens) [compound 223]”: the Peptide exchange result is listed as “+++ (≥50 = +++)”. For “224 (LLFDWSGTGRADA; listed as Homo sapiens) [compound 224]”, the Peptide exchange entry was “+++ (≥50 = +++)”. Consider “225 (FLPQPVPLSV; listed as Homo sapiens) [compound 225]”, for which the Peptide exchange result is recorded as “+++ (≥50 = +++)”. Regarding “226 (SLAGNLQEL; listed as Homo sapiens) [compound 226]”, the Peptide exchange entry was “+++ (≥50 = +++)”. Turning to “227 (SEMEELPSV; listed as Homo sapiens) [compound 227]”, the Peptide exchange entry is “+ (≥10% = +)”. Consider “228 (SLLELDGINLRL; listed as Homo sapiens) [compound 228]”, for which the Peptide exchange entry is “+++ (≥50 = +++)”. Consider “229 (YLYELEHAL; listed as Homo sapiens) [compound 229]”, for which the Peptide exchange result is “++ (≥20% = ++)”. Take “230 (KLLNMIFSI; listed as Homo sapiens) [compound 230]”: the Peptide exchange result is “+++ (≥50 = +++)”. For “231 (LLDDIFIRL; listed as Homo sapiens) [compound 231]”, the Peptide exchange result is listed as “+++ (≥50 = +++)”. On to “233 (SLFESLEYL; listed as Homo sapiens) [compound 233]”, for which the Peptide exchange result is recorded as “+++ (≥50 = +++)”.

As for “234 (VLLNEILEQV; listed as Homo sapiens) [compound 234]”, the Peptide exchange result is “++++ (≥75% = ++++)”.

As to “235 (SLLNQPKAV; listed as Homo sapiens) [compound 235]”, the Peptide exchange entry was “++ (≥20% = ++)”. For “236 (KMSELQTYV; listed as Homo sapiens) [compound 236]”, the Peptide exchange entry was “+++ (≥50 = +++)”. Consider “237 (ALLEQTGDMSL; listed as Homo sapiens) [compound 237]”, for which the Peptide exchange result is “+++ (≥50 = +++)”. On to “238 (HLQEKLQSL; listed as Homo sapiens) [compound 238]”, for which the Peptide exchange entry is reported as “++ (≥20% = ++)”. Turning to “239 (VIIKGLEEITV; listed as Homo sapiens) [compound 239]”, the Peptide exchange entry is given as “+++ (≥50 = +++)”. Take “241 (KQFEGTVEI; listed as Homo sapiens) [compound 241]”: the Peptide exchange entry is on record as “+++ (≥50 = +++)”. For the substance “242 (KLQEEIPVL; listed as Homo sapiens) [compound 242]”, the Peptide exchange result is on record as “+++ (≥50 = +++)”. For the substance “243 (GLAEFQENV; listed as Homo sapiens) [compound 243]”, the Peptide exchange result is listed as “++ (≥20% = ++)”. For “244 (NVAEIVIHI; listed as Homo sapiens) [compound 244]”, the Peptide exchange result is “+++ (≥50 = +++)”.

Turning to “245 (ALLEEEEGV; listed as Homo sapiens) [compound 245]”, the Peptide exchange entry is “++ (≥20% = ++)”. For “246 (ALAGIVTNV; listed as Homo sapiens) [compound 246]”, the Peptide exchange result is reported as “+++ (≥50 = +++)”. Under “247 (NLLIDDKGTIKL; listed as Homo sapiens) [compound 247]” stands “++ (≥20% = ++)”; under “248 (VLMQDSRLYL; listed as Homo sapiens) [compound 248]”, “+++ (≥50 = +++)”. In the case of “249 (YLYQILQGI; listed as Homo sapiens) [compound 249]”, the Peptide exchange result is “+++ (≥50 = +++)”. “250 (LMQDSRLYL; listed as Homo sapiens) [compound 250]”: the Peptide exchange entry is “+++ (≥50 = +++)”. On to “251 (LLWGNLPEI; listed as Homo sapiens) [compound 251]”, for which the Peptide exchange entry is “+++ (≥50 = +++)”. Consider “252 (SLMEKNQSL; listed as Homo sapiens) [compound 252]”, for which the Peptide exchange result was “++ (≥20% = ++)”. On to “253 (KLLAVIHEL; listed as Homo sapiens) [compound 253]”, for which the Peptide exchange entry is given as “+++ (≥50 = +++)”.

“254 (ALGDKFLLRV; listed as Homo sapiens) [compound 254]”: the Peptide exchange result is “++ (≥20% = ++)”. For the substance “255 (FLMKNSDLYGA; listed as Homo sapiens) [compound 255]”, the Peptide exchange entry is reported as “+++ (≥50 = +++)”. On to “256 (FLNDIFERI; listed as Homo sapiens) [compound 256]”, for which the Peptide exchange result is reported as “+++ (≥50 = +++)”. In the case of “257 (KLIDHQGLYL; listed as Homo sapiens) [compound 257]”, the Peptide exchange entry is “+++ (≥50 = +++)”.

“258 (QLVQRVASV; listed as Homo sapiens) [compound 258]”: the Peptide exchange result is reported as “++ (≥20% = ++)”. Under “259 (GPGIFPPPPPQP; listed as Homo sapiens) [compound 259]” stands “+ (≥10% = +)”. For the substance “260 (ALNESLVEC; listed as Homo sapiens) [compound 260]”, the Peptide exchange entry is recorded as “+++ (≥50 = +++)”. “261 (GLAALAVHL; listed as Homo sapiens) [compound 261]”: the Peptide exchange result was “+++ (≥50 = +++)”. Consider “262 (LLLEAVWHL; listed as Homo sapiens) [compound 262]”, for which the Peptide exchange entry is “+++ (≥50 = +++)”. In the case of “263 (SIIEYLPTL; listed as Homo sapiens) [compound 263]”, the Peptide exchange result is “+++ (≥50 = +++)”.

Take “264 (TLHDQVHLL; listed as Homo sapiens) [compound 264]”: the Peptide exchange result is listed as “++ (≥20% = ++)”. On to “265 (FLLDKPQDLSI; listed as Homo sapiens) [compound 265]”, for which the Peptide exchange result is reported as “+++ (≥50 = +++)”. With “266 (FLLDKPQDL; listed as Homo sapiens) [compound 266]”, the Peptide exchange result is “++ (≥20% = ++)”.

Take “267 (YLLDMPLWYL; listed as Homo sapiens) [compound 267]”: the Peptide exchange result is given as “+++ (≥50 = +++)”. Regarding “268 (SLDKDIVAL; listed as Homo sapiens) [compound 268]”, the Peptide exchange result was “++ (≥20% = ++)”. Consider “269 (GLLDCPIFL; listed as Homo sapiens) [compound 269]”, for which the Peptide exchange entry is given as “++++ (≥75% = ++++)”.

For “270 (TLLTFFHEL; listed as Homo sapiens) [compound 270]”, the Peptide exchange result was “+++ (≥50 = +++)”. On to “271 (VLIEYNFSI; listed as Homo sapiens) [compound 271]”, for which the Peptide exchange entry was “+++ (≥50 = +++)”. Regarding “272 (FVMEGEPPKL; listed as Homo sapiens) [compound 272]”, the Peptide exchange result is recorded as “++ (≥20% = ++)”. As for “273 (SLNKQIETV; listed as Homo sapiens) [compound 273]”, the Peptide exchange result is reported as “++ (≥20% = ++)”.
